From the Human Domainome abundance scans (Beltran et al. 2025)
± gives the uncertainty stated by the source.

B1: Zinc finger MYM-type protein 3, residues 405 to 444; numbered along this chain, Q14202 (parent)
chain: DATRCSICQKTGEVLHEVSNGSVVHRLCSDSCFSKFRANK

Variants of: B1
Assay: abundance fitness (aPCA) (normalised: wild type 0, dead -1); higher = more abundant; growth selection in yeast, the domain comes from the species named
Details: Homo sapiens

Variant | abundance fitness
DATRCSICQKTGEVLHEVSVGSVVHRLCSDSCFSKFRANK | -0.296 ± 0.053
DATRCSICQKTGEVLHEVSWGSVVHRLCSDSCFSKFRANK | -0.415 ± 0.073
DATRCSICQKTGEVLHEVSNCSVVHRLCSDSCFSKFRANK | -0.335 ± 0.081
DATRCSICQKTGEVLHEVSNDSVVHRLCSDSCFSKFRANK | 0.016 ± 0.083
DATRCSICQKTGEVLHEVSNESVVHRLCSDSCFSKFRANK | 0.008 ± 0.063
DATRCSICQKTGEVLHEVSNFSVVHRLCSDSCFSKFRANK | -0.366 ± 0.17
DATRCSICQKTGEVLHEVSNHSVVHRLCSDSCFSKFRANK | -0.235 ± 0.17
DATRCSICQKTGEVLHEVSNKSVVHRLCSDSCFSKFRANK | -0.214 ± 0.058
DATRCSICQKTGEVLHEVSNLSVVHRLCSDSCFSKFRANK | -0.298 ± 0.054
DATRCSICQKTGEVLHEVSNMSVVHRLCSDSCFSKFRANK | -0.243 ± 0.093
DATRCSICQKTGEVLHEVSNNSVVHRLCSDSCFSKFRANK | -0.646 ± 0.21
DATRCSICQKTGEVLHEVSNPSVVHRLCSDSCFSKFRANK | -0.392 ± 0.1
DATRCSICQKTGEVLHEVSNQSVVHRLCSDSCFSKFRANK | 0.043 ± 0.064
DATRCSICQKTGEVLHEVSNRSVVHRLCSDSCFSKFRANK | -0.354 ± 0.054
DATRCSICQKTGEVLHEVSNSSVVHRLCSDSCFSKFRANK | -0.193 ± 0.064
DATRCSICQKTGEVLHEVSNVSVVHRLCSDSCFSKFRANK | -0.611 ± 0.059
DATRCSICQKTGEVLHEVSNWSVVHRLCSDSCFSKFRANK | -0.701 ± 0.07
DATRCSICQKTGEVLHEVSNYSVVHRLCSDSCFSKFRANK | -0.389 ± 0.089
DATRCSICQKTGEVLHEVSNGAVVHRLCSDSCFSKFRANK | -0.109 ± 0.06
DATRCSICQKTGEVLHEVSNGCVVHRLCSDSCFSKFRANK | -0.56 ± 0.077
DATRCSICQKTGEVLHEVSNGDVVHRLCSDSCFSKFRANK | -0.432 ± 0.1

Variant | abundance fitness
DATRCSICQKTGEVLHEVSNGEVVHRLCSDSCFSKFRANK | 0.006 ± 0.056
DATRCSICQKTGEVLHEVSNGHVVHRLCSDSCFSKFRANK | -0.055 ± 0.076
DATRCSICQKTGEVLHEVSNGIVVHRLCSDSCFSKFRANK | -0.153 ± 0.073
DATRCSICQKTGEVLHEVSNGLVVHRLCSDSCFSKFRANK | -0.208 ± 0.06
DATRCSICQKTGEVLHEVSNGMVVHRLCSDSCFSKFRANK | 0.021 ± 0.068
DATRCSICQKTGEVLHEVSNGNVVHRLCSDSCFSKFRANK | 0.029 ± 0.094
DATRCSICQKTGEVLHEVSNGPVVHRLCSDSCFSKFRANK | -0.039 ± 0.066
DATRCSICQKTGEVLHEVSNGQVVHRLCSDSCFSKFRANK | -0.001 ± 0.065
DATRCSICQKTGEVLHEVSNGRVVHRLCSDSCFSKFRANK | -0.136 ± 0.051
DATRCSICQKTGEVLHEVSNGTVVHRLCSDSCFSKFRANK | 0.018 ± 0.058
DATRCSICQKTGEVLHEVSNGVVVHRLCSDSCFSKFRANK | -0.571 ± 0.06
DATRCSICQKTGEVLHEVSNGWVVHRLCSDSCFSKFRANK | -0.419 ± 0.076
DATRCSICQKTGEVLHEVSNGYVVHRLCSDSCFSKFRANK | -0.303 ± 0.094
DATRCSICQKTGEVLHEVSNGSAVHRLCSDSCFSKFRANK | -0.085 ± 0.057
DATRCSICQKTGEVLHEVSNGSCVHRLCSDSCFSKFRANK | -0.937 ± 0.09
DATRCSICQKTGEVLHEVSNGSDVHRLCSDSCFSKFRANK | 0.079 ± 0.077
DATRCSICQKTGEVLHEVSNGSEVHRLCSDSCFSKFRANK | 0.103 ± 0.057
DATRCSICQKTGEVLHEVSNGSFVHRLCSDSCFSKFRANK | -0.01 ± 0.077
DATRCSICQKTGEVLHEVSNGSGVHRLCSDSCFSKFRANK | 0.018 ± 0.054
DATRCSICQKTGEVLHEVSNGSHVHRLCSDSCFSKFRANK | 0.092 ± 0.082
DATRCSICQKTGEVLHEVSNGSIVHRLCSDSCFSKFRANK | -0.087 ± 0.11

Variant | abundance fitness
DATRCSICQKTGEVLHEVSNGSKVHRLCSDSCFSKFRANK | 0.114 ± 0.064
DATRCSICQKTGEVLHEVSNGSLVHRLCSDSCFSKFRANK | -0.317 ± 0.059
DATRCSICQKTGEVLHEVSNGSMVHRLCSDSCFSKFRANK | 0.13 ± 0.079
DATRCSICQKTGEVLHEVSNGSNVHRLCSDSCFSKFRANK | 0.14 ± 0.12
DATRCSICQKTGEVLHEVSNGSPVHRLCSDSCFSKFRANK | -0.374 ± 0.076
DATRCSICQKTGEVLHEVSNGSQVHRLCSDSCFSKFRANK | 0.181 ± 0.062
DATRCSICQKTGEVLHEVSNGSRVHRLCSDSCFSKFRANK | -0.013 ± 0.052
DATRCSICQKTGEVLHEVSNGSSVHRLCSDSCFSKFRANK | 0.007 ± 0.056
DATRCSICQKTGEVLHEVSNGSTVHRLCSDSCFSKFRANK | 0.126 ± 0.061
DATRCSICQKTGEVLHEVSNGSWVHRLCSDSCFSKFRANK | -0.757 ± 0.076
DATRCSICQKTGEVLHEVSNGSYVHRLCSDSCFSKFRANK | -0.166 ± 0.077
DATRCSICQKTGEVLHEVSNGSVCHRLCSDSCFSKFRANK | -0.206 ± 0.073
DATRCSICQKTGEVLHEVSNGSVEHRLCSDSCFSKFRANK | -0.03 ± 0.064
DATRCSICQKTGEVLHEVSNGSVFHRLCSDSCFSKFRANK | -0.307 ± 0.12
DATRCSICQKTGEVLHEVSNGSVGHRLCSDSCFSKFRANK | -0.255 ± 0.052
DATRCSICQKTGEVLHEVSNGSVHHRLCSDSCFSKFRANK | -0.034 ± 0.075
DATRCSICQKTGEVLHEVSNGSVIHRLCSDSCFSKFRANK | -0.064 ± 0.089
DATRCSICQKTGEVLHEVSNGSVKHRLCSDSCFSKFRANK | 0.032 ± 0.068
DATRCSICQKTGEVLHEVSNGSVLHRLCSDSCFSKFRANK | -0.077 ± 0.051
DATRCSICQKTGEVLHEVSNGSVMHRLCSDSCFSKFRANK | 0.048 ± 0.065
